Laboratory results as given in publication PMC10896785.

Biological target: heat shock protein 90 (Hsp90), endogenous mouse, P07901
Test: in situ proximity-ligation assay (PLA)
Settings: chain shown with the change; primary mouse embryonic fibroblasts (MEFs); anti-FKBP51 and anti-Hsp90 antibodies; parent: est. 240; read off a plot

- response (PLA dots/Nuclei): 73
B1: FK506-binding protein 51 kDa (FKBP51), wild-type mouse, Q64378 K352A; R356A (protein)
chain: MTTDEGTSNNGENPAATMTEQGEDITTKKDRGVLKIVKRVGTSDEAPMFGDKVYVHYKGMLSDGKKFDSSHDRKKPFAFSLGQGQVIKAWDIGVSTMKKGEICHLLCKPEYAYGSAGHLQKIPSNATLFFEIELLDFKGEDLFEDSGVIRRIKRKGEGYSNPNEGATVKVHLEGCCGGRTFDCRDVVFVVGEGEDHDIPIGIDKALVKMQREEQCILYLGPRYGFGEAGKPKFGIDPNAELMYEVTLKSFEKAKESWEMDTKEKLTQAAIVKEKGTVYFKGGKYTQAVIQYRKIVSWLEMEYGLSEKESKASESFLLAAFLNLAMCYLKLREYNKAVECCDKALGLDSANEAGLYARGEAQLLMNDFESAKGDFEKVLAVNPQNRAARLQISMCQRKAKEHNERDRRVYANMFKKFAERDAKEEASKAGSKKAVEGAAGKQHESQAMEEGKAKGHV
